Reference: PMC6379669 (Nucleic Acids Research, 2018)

Target: full-length human RBBP4 (residues 1–425), recombinant (human, UniProt Q09028 1-425)
Test: ITC

full-length human RBBP4 (residues 1–425), recombinant, sequence (Q09028 whole entry, the tested form may be a part): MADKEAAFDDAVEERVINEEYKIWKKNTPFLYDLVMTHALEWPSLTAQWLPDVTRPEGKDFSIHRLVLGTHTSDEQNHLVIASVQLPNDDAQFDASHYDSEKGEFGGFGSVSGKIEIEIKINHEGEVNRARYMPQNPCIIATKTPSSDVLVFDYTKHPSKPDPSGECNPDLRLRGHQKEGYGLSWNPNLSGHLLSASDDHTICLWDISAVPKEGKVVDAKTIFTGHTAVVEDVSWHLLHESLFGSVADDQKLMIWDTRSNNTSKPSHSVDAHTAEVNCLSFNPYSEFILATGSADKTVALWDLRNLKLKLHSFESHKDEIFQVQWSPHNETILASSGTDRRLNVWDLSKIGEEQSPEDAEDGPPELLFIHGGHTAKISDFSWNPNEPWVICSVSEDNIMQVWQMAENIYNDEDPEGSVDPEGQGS

Row | Binder | Kd [µM] | stoichiometry N
1 | MRSKARARKLAK [human PRDM16 peptide (residues 1–12)] | 3.15 | 1
2 | MRSKGRARKLAT [human PRDM3 peptide (residues 1–12)] | 2.96 | 1
